Data published in the supplement of paper PMC11246515.
± gives the standard deviation of the averaged measurements.

Test: total protein half-life in vivo (active degradation + dilution); higher = more stable protein
[1] = E. coli NCM3722 delta-clpP, growth: N-lim chemostat, doubling time 6 h
[2] = E. coli NCM3722 delta-hslV, growth: N-lim chemostat, doubling time 6 h
[3] = E. coli NCM3722 delta-smpB, growth: N-lim chemostat, doubling time 6 h
[4] = wild type E. coli NCM3722, growth: C-lim chemostat, doubling time 3 h
[5] = wild type E. coli NCM3722, growth: C-lim chemostat, doubling time 6 h
[6] = wild type E. coli NCM3722, growth: C-lim chemostat, doubling time 12 h
[7] = wild type E. coli NCM3722, growth: N-lim chemostat, doubling time 12 h
[8] = wild type E. coli NCM3722, growth: P-lim chemostat, doubling time 6 h
[9] = wild type E. coli NCM3722, growth: P-lim chemostat, doubling time 12 h
[10] = E. coli NCM3722 delta-clpP delta-lon delta-hslV, growth: N-lim chemostat, doubling time 6 h
[11] = wild type E. coli NCM3722, growth: N-lim chemostat, doubling time 6 h

Row | Sequence | total protein half-life in vivo [1] [h] | total protein half-life in vivo [2] [h] | total protein half-life in vivo [3] [h] | total protein half-life in vivo [4] [h] | total protein half-life in vivo [5] [h] | total protein half-life in vivo [6] [h] | total protein half-life in vivo [7] [h] | total protein half-life in vivo [8] [h] | total protein half-life in vivo [9] [h] | total protein half-life in vivo [10] [h] | total protein half-life in vivo (E. coli NCM3722 delta-lon, growth: N-lim chemostat, doubling time 6 h) [h] | total protein half-life in vivo [11] [h]
1 | MASISSLGVGSGLDLSSILDSLTAAQKATLTPISNQQSSFTAKLSAYGTLKSALTTFQTANTALSKADLFSATSTTSSTTAFSATTAGNAIAGKYTISVTHLAQAQTLTTRTTRDDTKTAIATSDSKLTIQQGGDKDPITIDISAANSSLSGIRDAINNAKAGVSASIINVGNGEYRLSVTSNDTGLDNAMTLSVSGDDALQSFMGYDASASSNGMEVSVAAQNAQLTVNNVAIENSSNTISDALENITLNLNDVTTGNQTLTITQDTSKAQTAIKDWVNAYNSLIDTFSSLTKYTAVDAGADSQSSSNGALLGDSTLRTIQTQLKSMLSNTVSSSSYKTLAQIGITTDPSDGKLELDADKLTAALKKDASGVGALIVGDGKKTGITTTIGSNLTSWLSTTGIIKAATDGVSKTLNKLTKDYNAASDRIDAQVARYKEQFTQLDVLMTSLNSTSSYLTQQFENNSNSK | > 8 | > 8 | > 8 | 1.4 ± 0.12 | 0.627 ± 0.1 | 0.906 ± 0.44 | > 16 | > 8 | > 16 | – | – | –
2 | MHYMKWIYPRRLRNQMILMAILMVIVPTLTIGYIVETEGRSAVLSEKEKKLSAVVNLLNQALGDRYDLYIDLPREERIRALNAELAPITENITHAFPGIGAGYYNKMLDAIITYAPSALYQNNVGVTIAADHPGREVMRTNTPLVYSGRQVRGDILNSMLPIERNGEILGYIWANELTEDIRRQAWKMDVRIIIVLTAGLLISLLLIVLFSRRLSANIDIITDGLSTLAQNIPTRLPQLPGEMGQISQSVNNLAQALRETRTLNDLIIENAADGVIAIDRQGDVTTMNPAAEVITGYQRHELVGQPYSMLFDNTQFYSPVLDTLEHGTEHVALEISFPGRDRTIELSVTTSRIHNTHGEMIGALVIFSDLTARKETQRRMAQAERLATLGELMAGVAHEVRNPLTAIRGYVQILRQQTSDPIHQEYLSVVLKEIDSINKVIQQLLEFSRPRHSQWQQVSLNALVEETLVLVQTAGVQARVDFISELDNELSPINADRELLKQVLLNILINAVQAISARGKIRIQTWQYSDSQQAISIEDNGCGIDLSLQKKIFDPFFTTKASGTGLGLALSQRIINAHQGDIRVASLPGYGATFTLILPINPQGNQTV | – | – | – | 3.09 ± 0.28 | 6.53 | – | – | – | – | 6.89 | – | –
3 | MRLLNRLNQYQRLWQPSAGKPQTVTVSELAERCFCSERHVRTLLRQAQEAGWLEWQAQSGRGKRGQLRFLVTPESLRNAMMEQALETGKQQDVLELAQLAPGELRTLLQPFMGGQWQNDTPTLRIPYYRPLEPLQPGFLPGRAEQHLAGQIFSGLTRFDNNTQRPIGDLAHHWETSTDGLRWDFYLRSTLHWHNGDAVKASHLHQRLLMLLQLPALDQLFISVKRIEVTHPQCLTFFLHRPDYWLAHRLASYCSHLAHPQFPLIGTGPFRLTQFTAELVRLESHDYYHLRHPLLKAVEYWITPPLFEKDLGTSCRHPVQITIGKPEELQRVSQVSSGISLGFCYLTLRKSPRLSLWQARKVISIIHQSGLLQTLEVGENLITASHALLPGWTIPHWQVPDEVKLPKTLTLVYHLPIELHTMAERLQATLAAEGCELTIIFHNAKNWDDTTLQAHADLMMGDRLIGEAPEYTLEQWLRCDPLWPHVFDAPAYAHLQSTLDAVQIMPDEENRFNALKAVFSQLMTDATLTPLFNYHYRISAPPGVNGVRLTPRGWFEFTEAWLPAPSQ | – | – | – | 1.85 ± 0.39 | 3 ± 0.03 | 4.716 ± 0.0097 | – | – | – | 5.67 | – | –
4 | MAIEIKVPDIGADEVEITEILVKVGDKVEAEQSLITVEGDKASMEVPSPQAGIVKEIKVSVGDKTQTGALIMIFDSADGAADAAPAQAEEKKEAAPAAAPAAAAAKDVNVPDIGSDEVEVTEILVKVGDKVEAEQSLITVEGDKASMEVPAPFAGTVKEIKVNVGDKVSTGSLIMVFEVAGEAGAAAPAAKQEAAPAAAPAPAAGVKEVNVPDIGGDEVEVTEVMVKVGDKVAAEQSLITVEGDKASMEVPAPFAGVVKELKVNVGDKVKTGSLIMIFEVEGAAPAAAPAKQEAAAPAPAAKAEAPAAAPAAKAEGKSEFAENDAYVHATPLIRRLAREFGVNLAKVKGTGRKGRILREDVQAYVKEAIKRAEAAPAATGGGIPGMLPWPKVDFSKFGEIEEVELGRIQKISGANLSRNWVMIPHVTHFDKTDITELEAFRKQQNEEAAKRKLDVKITPVVFIMKAVAAALEQMPRFNSSLSEDGQRLTLKKYINIGVAVDTPNGLVVPVFKDVNKKGIIELSRELMTISKKARDGKLTAGEMQGGCFTISSIGGLGTTHFAPIVNAPEVAILGVSKSAMEPVWNGKEFVPRLMLPISLSFDHRVIDGADGARFITIINNTLSDIRRLVM | 6.08 ± 0.4 | 6.48 ± 0.081 | 5.78 ± 0.37 | 3.08 ± 0.092 | 5.778 ± 0.018 | 10.6 ± 0.66 | 12.3 ± 0.84 | 6.07 ± 0.26 | 12.5 ± 0.53 | 6.49 ± 0.23 | 6.36 ± 0.067 | 6.19 ± 0.27
5 | MTKIIAVTACPSGVAHTYMAAEALESAAKAKGWEVKVETQGSIGLENELTAEDVASADMVILTKDIGIKFEERFAGKTIVRVNISDAVKRADAIMSKIEAHLAQTA | 5.65 | – | – | – | – | 8.01 ± 8.9 | – | – | – | 4.85 ± 0.3 | – | –
6 | MIVTIVGWLVLFVFLPNLMIIGTSFLTRDDASFVKMVFTLDNYTRLLDPLYFEVLLHSLNMALIATLACLVLGYPFAWFLAKLPHKVRPLLLFLLIVPFWTNSLIRIYGLKIFLSTKGYLNEFLLWLGVIDTPIRIMFTPSAVIIGLVYILLPFMVMPLYSSIEKLDKPLLEAARDLGASKLQTFIRIIIPLTMPGIIAGCLLVMLPAMGLFYVSDLMGGAKNLLIGNVIKVQFLNIRDWPFGAATSITLTIVMGLMLLVYWRASRLLNKKVELE [P0AFK4] | – | – | 5.57 ± 0.42 | – | 5.93 | 9.29 ± 5.5 | – | 2.09 | 6.6 | 4.04 ± 3 | – | 5.03
7 | MRKIIHVDMDCFFAAVEMRDNPALRDIPIAIGGSRERRGVISTANYPARKFGVRSAMPTGMALKLCPHLTLLPGRFDAYKEASNHIREIFSRYTSRIEPLSLDEAYLDVTDSVHCHGSATLIAQEIRQTIFNELQLTASAGVAPVKFLAKIASDMNKPNGQFVITPAEVPAFLQTLPLAKIPGVGKVSAAKLEAMGLRTCGDVQKCDLVMLLKRFGKFGRILWERSQGIDERDVNSERLRKSVGVERTMAEDIHHWSECEAIIERLYPELERRLAKVKPDLLIARQGVKLKFDDFQQTTQEHVWPRLNKADLIATARKTWDERRGGRGVRLVGLHVTLLDPQMERQLVLGL | – | – | – | – | – | – | – | – | – | 4.16 ± 0.15 | – | –
8 | MSYPLFDKDEHWHKPEQAFLTDDHRTILRFAVEALMSGKGAVLVTLVEIRGGAARPLGAQMVVREDGRYCGFVSGGCVEAAAAFEALEMMGSGRDREIRYGEGSPWFDIVLPCGGGITLTLHKLRSAQPLLAVLNRLEQRKPVGLRYDPQAQSLVCLPTQTRTGWNLNGFEVGFRPCVRLMIYGRSLEAQATASLAAATGYDSHIFDLFPASASAQIDTDTAVILLCHDLNRELPVLQAAREAKPFYLGALGSYRTHTLRLQKLHELGWSREETTQIRAPVGIFPKARDAHTLALSVLAEVASVRLHQEEDSCLPPSS | – | – | – | – | – | – | – | – | – | 5.9 ± 0.33 | – | –
9 | MKKLFIQFYLLLFVCFLVMSLLVGLVYKFTAERAGKQSLDDLMNSSLYLMRSELREIPPHDWGKTLKEMDLNLSFDLRVEPLSKYHLDDISMHRLRGGEIVALDDQYTFLQRIPRSHYVLAVGPVPYLYYLHQMRLLDIALIAFIAISLAFPVFIWMRPHWQDMLKLEAAAQRFGDGHLNERIHFDEGSSFERLGVAFNQMADNINALIASKKQLIDGIAHELRTPLVRLRYRLEMSDNLSAAESQALNRDISQLEALIEELLTYARLDRPQNELHLSEPDLPLWLSTHLADIQAVTPDKTVRIKTLVQGHYAALDMRLMERVLDNLLNNALRYCHSTVETSLLLSGNRATLIVEDDGPGIAPENREHIFEPFVRLDPSRDRSTGGCGLGLAIVHSIALAMGGTVNCDTSELGGARFSFSWPLWHNIPQFTSA | – | 6.14 ± 0.51 | 6.03 ± 0.18 | 2.755 ± 0.017 | 6.26 | 12.5 ± 4.9 | 10.1 ± 2.2 | 5.97 ± 0.2 | 11.4 ± 0.61 | – | – | 6.3
